Reference: patent US20090175786A1
Where no end group is shown, it is not given here.

Molecular target: T1, neuromedin-B preferring receptor (NMB-R) of C6 rodent glioblastoma cells (rodent), P24053
T1 chain: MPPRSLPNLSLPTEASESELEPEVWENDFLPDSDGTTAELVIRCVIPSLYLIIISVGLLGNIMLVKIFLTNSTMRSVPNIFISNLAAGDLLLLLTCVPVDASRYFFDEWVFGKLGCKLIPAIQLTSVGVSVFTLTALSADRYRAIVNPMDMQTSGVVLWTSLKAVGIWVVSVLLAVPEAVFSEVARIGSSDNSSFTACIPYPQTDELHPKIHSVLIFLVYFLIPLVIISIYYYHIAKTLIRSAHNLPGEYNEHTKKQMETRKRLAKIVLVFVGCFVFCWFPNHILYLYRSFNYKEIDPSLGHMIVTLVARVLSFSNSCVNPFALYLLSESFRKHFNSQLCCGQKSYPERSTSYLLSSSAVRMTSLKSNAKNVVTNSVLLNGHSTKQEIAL
Assay: 125I-NMB competition, C6 cells

B1: p…-NH2 (peptide)
chain: EQRYGNQWAVGHLM-NH2
modifications: also: name truncated at 'p…', N-terminal modification unresolved
Work on B1 yielded an IC50 of 3.36 nM.
